Source: patent publication US7164008B2, “Isolated complexes of endotoxin and MD-2” (priority 2003, dated 2007)

Columns and labels:
[1] = molecular target: T1, TLR4 (Homo sapiens, UniProt O00206+Q9Y6Y9); experiment: HEK cell activation assay: extracellular IL-8 by ELISA; assay type: cell-based
T1 construct: host or cells: HEK293 stably transfected with TLR4 (HEK/TLR4)
From the text: Conditioned insect cell culture medium containing soluble, polyhistidine-tagged recombinant wild-type (wt) or C95Y mutant MD-2 were generated according to the method of Viriyakosol et al. (2001). A human embryonic kidney cell line (HEK293) that stably expresses TLR4 (HEK/TLR4), but lacks both CD14 and MD-2 (Yang et al., 2000), was used to evaluate the effect of MD-2 on the ability of lipooligosaccharide (LOS) to interact with TLR4 and promote activation.
FIG. 1 depicts the expression and bioactivity of recombinant MD-2-His6. FIGS. 1A and 1B depict SDS-PAGE immunoblots of control culture medium (FIG. 1A, lane 1) or medium from HiFive cells infected with recombinant baculovirus encoding wt (FIG. 1A, lane 2; FIG. 1B, lanes 1–3) or C95Y MD-2 (FIG. 1B, lane 4). MD-2 was detected using anti-(His)4 antibody. All samples represent 1 μl of culture medium except B, lanes 2 and 3, which represent 0.3 and 0.1 μl and A, lane 3, which represents molecular weight markers. In FIG. 1C, HEK/TLR4 cells were incubated in HEPES-buffered HBSS+/0.1% albumin with [^14C]-LOSagg (3 ng/ml)+/−LBP (30 ng/ml) and/or (60 μl) culture medium containing wt MD-2 (MD-2) (open bars); LOSagg+LBP and sCD14 (250 ng/ml)+/−wt (closed bars) or C95Y “MD-2” (striped bars), or [^14C]-LOS-sCD14 (2 ng LOS/ml)+/−wt or C95Y “MD-2” (closed bars). After overnight incubation, extracellular IL-8 was assayed by ELISA. In FIG. 1D, HEK/TLR4 cells were incubated with increasing amounts of wt (▪) or C95Y (◯) MD-2+[^14C]-LOS-sCD14 (2 ng/ml) and cell activation measured. Results shown are from one experiment (duplicate samples) representative of four independent experiments.
In FIG. 2, a bioactive complex (Mr˜25,000) containing MD-2 and [^14C]-LOS is formed by incubation of [^14C]-LOS-sCD14 with wt, but not C95Y, MD-2. In FIG. 2A, dialyzed control insect cell medium (◯) or medium containing wt (♦) or C95Y ( ? ) MD-2 was incubated for 30 min, 37° C. with (1:1 vol/vol) [^14C]-LOS-sCD14 in HBSS+, 10 mM HEPES and chromatographed on Sephacryl S100. Column fractions were analyzed for [^14C]-LOS. Identical results were obtained in analytical (5 ng [^14C]-LOS/ml+200 μl culture medium) or more preparative runs (reagents concentrated 20×). In FIG. 2B, peak fractions (Mr˜25,000) from treatment of [^14C]-LOS-sCD14 with wt MD-2 (FIG. 2A) were re-chromatographed on S100 in HBSS+, 10 mM HEPES without HSA; recovery of [^14C]-LOS was >80%. In FIG. 2C, HEK (□) or HEK/TLR4 (▪) were incubated overnight with the indicated amounts of LOS added as purified Mr˜25,000 (LOS-MD-2) complex. Cell activation was measured by IL-8 accumulation. Results shown correspond to one experiment, in duplicate, representative of three similar experiments. FIGS. 2D and 2E depict adsorption and elution of bioactive Mr˜25,000 complex to HisBind resin. Peak fractions of the purified complex (FIG. 2B; 10 ng [^14C]-LOS) were dialyzed against PBS and incubated with HisBind resin (0.125 ml) for 1 hr at 25° C. and processed as described in Methods. Non-adsorbed (Flow-thru) and adsorbed material eluted with 200 mM imidazole were precipitated with trichloroacetic acid to concentrate sample for SDS-PAGE/immunoblot analysis. […]
Purified [^14C]-LOSagg or [^14C]-LOS-sCD14 (3 ng LOS/ml)+/−indicated proteins (30 ng/ml LBP, 250 ng/ml sCD14, 60 μl culture medium) were incubated at 37° C. for 30 min. After this incubation, samples were analyzed by gel filtration chromatography to monitor formation of [^14C]-LOS-MD-2 and by incubation with HEK/TLR4 cells to measure cell activation. […]

[2] = test system: MD-2; experiment: Formation of [^14C]-LOS-MD-2 complex monitored by gel filtration chromatography; assay type: binding, human; settings: 30 min, 37° C., Sephacryl S100
Method: In FIG. 2, a bioactive complex (Mr˜25,000) containing MD-2 and [^14C]-LOS is formed by incubation of [^14C]-LOS-sCD14 with wt, but not C95Y, MD-2. In FIG. 2A, dialyzed control insect cell medium (◯) or medium containing wt (♦) or C95Y ( ? ) MD-2 was incubated for 30 min, 37° C. with (1:1 vol/vol) [^14C]-LOS-sCD14 in HBSS+, 10 mM HEPES and chromatographed on Sephacryl S100. Column fractions were analyzed for [^14C]-LOS. Identical results were obtained in analytical (5 ng [^14C]-LOS/ml+200 μl culture medium) or more preparative runs (reagents concentrated 20×). […] Cell activation was measured by IL-8 accumulation. […]
Purified [^14C]-LOSagg or [^14C]-LOS-sCD14 (3 ng LOS/ml)+/−indicated proteins (30 ng/ml LBP, 250 ng/ml sCD14, 60 μl culture medium) were incubated at 37° C. for 30 min. After this incubation, samples were analyzed by gel filtration chromatography to monitor formation of [^14C]-LOS-MD-2 and by incubation with HEK/TLR4 cells to measure cell activation.
Columns of Sephacryl HR S200 (1.6 cm×30 cm) or S100 (1.0 cm×60 cm) were pre-equilibrated in 10 mM HEPES, HBSS^++/−0.1% HSA. […] Aliquots of the collected fractions were analyzed by liquid scintillation spectroscopy using a Beckman LS liquid scintillation counter to detect [^14C]-LOS. […]

T1 sequence (O00206 24-839, one chain of several): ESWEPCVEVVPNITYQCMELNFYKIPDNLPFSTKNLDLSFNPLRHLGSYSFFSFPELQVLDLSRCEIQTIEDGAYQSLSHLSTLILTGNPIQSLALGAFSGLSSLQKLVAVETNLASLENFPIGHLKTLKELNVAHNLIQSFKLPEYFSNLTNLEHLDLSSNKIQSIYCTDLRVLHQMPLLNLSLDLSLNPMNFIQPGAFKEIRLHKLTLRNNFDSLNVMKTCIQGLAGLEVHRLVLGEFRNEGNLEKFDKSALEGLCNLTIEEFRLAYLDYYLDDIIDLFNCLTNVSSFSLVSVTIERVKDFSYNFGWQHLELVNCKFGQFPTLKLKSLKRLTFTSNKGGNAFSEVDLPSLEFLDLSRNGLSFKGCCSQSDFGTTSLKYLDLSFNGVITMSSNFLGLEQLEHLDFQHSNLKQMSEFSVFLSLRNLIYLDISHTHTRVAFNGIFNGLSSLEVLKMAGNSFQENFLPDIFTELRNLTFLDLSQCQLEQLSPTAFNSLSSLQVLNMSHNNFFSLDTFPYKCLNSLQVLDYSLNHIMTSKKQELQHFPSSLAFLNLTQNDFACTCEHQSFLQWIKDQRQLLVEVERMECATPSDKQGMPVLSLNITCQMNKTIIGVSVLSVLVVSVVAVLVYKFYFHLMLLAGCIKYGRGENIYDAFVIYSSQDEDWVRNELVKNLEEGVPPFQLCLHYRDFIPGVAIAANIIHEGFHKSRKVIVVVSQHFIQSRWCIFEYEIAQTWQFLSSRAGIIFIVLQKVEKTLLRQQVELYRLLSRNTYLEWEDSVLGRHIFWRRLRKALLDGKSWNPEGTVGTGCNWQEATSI

B1: wt MD-2: soluble polyhistidine-tagged recombinant wild-type MD-2 in conditioned insect cell culture medium (protein)
chain: QKQYWVCNSSDASISYTYCDKMQYPISINVNPCIELKRSKGLLHIFYIPRRDLKQLYFNLYITVNTMNLPKRKEVICRGSDDDYSFCRALKGETVNTTISFSFKGIKFSKGKYKCVVEAISGSPEEMLFCLEFVILHQPNSNHHHHHH
MD-2 concentration producing maximum cell activation ([1]; HEK/TLR4 with [^14C]-LOS-sCD14 (2 ng/ml)): 30 ng/mL
activation of HEK/TLR4 cells by LOS-sCD14 (or LOSagg+LBP+sCD14) on addition of medium containing MD-2 ([1]; IL-8 release, LOS-sCD14 2 ng LOS/ml): robust activation
inhibition of activation of HEK/TLR4 by [^14C]-LOS-MD-2 by added MD-2 ([1]; [^14C]-LOS-MD-2 0.3 ng/ml, increasing amounts of conditioned medium): dose-dependent inhibition
reaction with [^14C]-LOS-sCD14 to generate new Mr˜25,000 [^14C]-LOS-containing complex [2]: efficiently generated
